In a protein production outcome set (Wang et al. 2014) one finds protein production data, which are given here for 21 sequences.
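Note: failed if final PepcDB status was selected cloned or expressed and not failed if soluble or beyond.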

The series in a line: label from the status in PepcDB records.
As to “MKLHLEIWRQAGPNSEGHFEPIDVNDAVPQMSVLELLDHVNTGLIEEGKEPFVFASDCREGICGTCGLLVNGRPHGLDKNKPSCQQRLDHVPDGSTLKIEPLRSAAYPVVKDLLVDRSALDRVLEKGGFVSINAGTAPDADTLHQNHESAELALDH”, the protein production entry is reported as “failed”.
As for “MKLIAAGLTLIFLGFILLFLGVVLQVQTPQTTTSSSPQFAGLVLLGPIPIAFGNVPPSVLSNLIIVGVVFTIIMLIIYLIMFIIGRKTTRAPF”, the entry is “failed”; as for “MKLIGITGMPGSGKSAITKLAEKYKIVVVSMGDVVRYETLKQGMPLNPENVGNTAVKLREIYGKEAIAVPCLNYVNEKYNNEDFVIIEGIRSIYEVNYIKKHAELDIIAIHSSPKTRFERLSGRNREDDSNDWNTFVERDERELNFSIGRVISLADYMVVNEGNYMDFVNDLENTFKKIINVN”, “not failed”.
With “MKLIIAIVQDKDSNRLSSQFIEANVRATKLSTTGGFLRSGNTTFMIGIDDDRVDEVLAMIKETSHAREQFMTPPVNLDVTMDGAAAYPVEVQVGGATVFVLPIEQFHQF” the entry was “failed”.
With “MKLIVAIVRPEKLNEVLEALFQAEVRGLTLSRVQGHGGETERVETYRGTTVKMELHEKVRLEIGVSEPFVKPTVEAILKAARTGEVGDGKIFVLPVEKVYRIRTGEEDEAAVTPVQ” the entry was “not failed”; with “MKLKHKRDDKMRFDIKKVLELAEKDFETAWRETRALIKDKHIDNKYPRLKPVYGKPHPVMETIERLRQAYLRMGFEEMINPVIVDEMEIYKQFGPEAMAVLDRCFYLAGLPRPDVGLGNEKVEIIKNLGIDIDEEKKERLREVLHLYKKGAIDGDDLVFEIAKALNVSNEMGLKVLETAFPEFKDLKPESTTLTLRSHMTSGWFITLSSLIKKRKLPLKLFSIDRCFRREQREDRSHLMSYHSASCVVVGEDVSVDDGKVVAEGLLAQFGFTKFKFKPDEKKSKYYTPETQTEVYAYHPKLGEWIEVATFGVYSPIALAKYNIDVPVMNLGLGVERLAMIIYGYEDVRAMVYPQFYEYRLSDRDIAGMIRVDKVPILDEFYNFANELIDICIANKDKESPCSVEVKREFNFNGERRVIKVEIFENEPNKKLLGPSVLNEVYVYDGNIYGIPPTFEGVKEQYIPILKKAKEEGVSTNIRYIDGIIYKLVAKIEEALVSNVDEFKFRVPIVRSLSDINLKIDELALKQIMGENKVIDVRGPVFLNAKVEIK”, “not failed”; with “MKLKILLLTILTLGAMTVHAQKITGDWKGMLSIPQANMELELIFHITGEGADLSTTMDVPAQGATGIPVEKTSFADGKLTLSAAALQFTFKGTLSGNTIEGNVEQMGFSLPLTLQRFESKLPGNTALPSTEEELKALAALDKGNYKYKVEDYFAKPKASAFQLSPNGKYLSYMEKDDAGKRHVYVKEIATGTVKRAIEEKDELIKGYGWINDERLFFVMDKGGNENYHLFASNIDGSNTRDLTPFDGVKASILNMLKEQKDYMIISMNKNNPQIFEPYKLNVVTGELTQLYENKDAANPIQGYEFDKDGELRGYSRLVNGIESELYYKDLATGEFRLLKKTHWDDTFGVIAFNYASKNKDEAYVLTNLDSDKTRIVLYDLKQNKIIREIFANEDYDVSGLHLSRKRNYEIDLMAYEGEKSVVVPVSATYKELHKLMEKEFKGKEFSVVDYDDDETILLIAVQSDKLYGTYYQFDTRTKKFTLLYDLMPQLKEEDMAEMRPIKFKSRDGLTIHGFITLPKAALEGKKVPLIVNPHGGPQGIRDSWGFNPETQLFASRGYATLQVNFRISGGYGKEFLRAGFKQIGRKAMDDVEDGVRYAISQGWVDPDRIAIYGASHGGYATLMGLVKTPDLYACGVDYVGVSNIYTFFDSFPEYWKPFKEMVKEIWYDLDNPEEAAIAKEVSPFFQIDKINKPLFVVQGANDPRVNINESDQIVTALRARGFEVPYMVKYNEGHGFHREENSMELYRAMLGFFAKHLKK”, “failed”.
Take “MKLLLALMLFMTFFAHAADPEPGSQYLQAAEAGDRRAQYFLADSWLSYGDLNKAEYWAQKAADSGDADACALLAQIKITNPVSLDYPDAKKLAEKAANAGSKVGEITLARILVNTQAGRPDYPKAISLLQKASEDLDNDSAVDAQMLLGLIYANGVGIAADDEKAAWYFKRSSAISRTGYSEYWAGMMFLNGEPGFIEKNKQKALHWLNLSCLEGFDTGCEEFETLTNG”: the protein production entry is listed as “failed”.
With “MKLLLVGEVRDGRVTAETAELFGFAACFSAEVSMVLAGSTDDLPSFEGKLYRADGVNAFDLACHKRLVLAAVEREQPDAVVFLHSSHGWELAPRVAFAMQSAQVSGVVGLDDGGYVVESCNGKMRRTVKPLTDRVVLTLQLGAFDAPAMAGIPEVTALDVEPDSTIEFLDCVQPERGIDLTRAGVIVSAGRGVGSAERVELVRALADALGGEVGASRPVVDAGWLERARQVGSSGQSVSPALYVACGISGAIQHLAGMKGSGFVLAINTDRDTPITSVADVLAVADVAEFLSALTAAIRARR” the entry was “failed”.
As for “MKLLREMLIVVFIYFLGEFISKSFIHSVPGNIIGMLILLVLLCTKVVKVESIDCVAQFFLDHLAFFFVPAGVGLMTSVGLLEGNVLKLLFICIASTFVVIGVTGLVVQALIRRKEKKLLGDEVNE”, the entry is “failed”; as for “MKLLVVDDSSTMRRIIKNTLSRLGYEDVLEAEHGVEAWEKLDANADTKVLITDWNMPEMNGLDLVKKVRSDSRFKEIPIIMITTEGGKAEVITALKAGVNNYIVKPFTPQVLKEKLEVVLGTND”, “failed”; as for “MKLMDVHVLFSGGKDSSLSAVILKKLGYNPHLITINFGVIPSYKLAEETAKILGFKHKVITLDRKIVEKAADMIIEHKYPGPAIQYVHKTVLEILADEYSILADGTRRDDRVPKLSYSEIQSLEMRKNIQYITPLMGFGYKTLRHLASEFFILEEIKSGTKLSSDYEAEIRHILKERGESPEKYFPEHKQTRVVGLKKEI”, “not failed”.
As for “MKLPHALSHWFPHKYAIDAKRLGDERTLAWSNLGYWADTSDYKTACRQLADGLADAVQLSSTDRLLDLGCGQGASLQHWVEHYQIQSLCAVELQLDHVKRIQHAFPQLEKMIQGSFLDLRPDTFKPHFDVVMCIDAAYHSALTSFLTAVGSVLKSKGRLGFHYLLLSEKWTQLPVWQRQKYKYLLKAADVELDDLADVTTTEHTLRAQGFDQIQIVDMTTDVFGGFARYMASRPYHSKQNIDERKIRATAKLCQYLCDQGIVRYVQIAATKQ”, the entry is “failed”.
“MKLPKALNEATAGAALKYHIKRALERSHSISDFSKNLELSTQKSHFSNNTLKIIEELNNGVKQASEEIKEKARDFSNQKLTNEQIKDLLNNAEIPTSGRDAITFGVNNLNPEIVEFLHKNNKKMIIEKASNKELELLKDANFKHPENIRASLDHDAIAHILKRHGVNSVNVRNGEIPITNEDIANYRYIVNNADAILRTLDNENKELISAFKQINGYAVVVEQAINKKNELVLKTMYKSKGDYKDNNAYKKFSSTHTLNADAKVNHRLSSYSGATENTTQKDLIDQENLLKTSENLNESTPKPTNLSPLEQANAEKLAKLESEKLESEKEFLKAKEQEATRKAALKKKLEHERGNAGNIESQTKIEVGEDIPTQTQAQLPKSRVRLNEREIYDLDYAIVKAKDLKPSFTTGGTQKRTDMNEEQIKSIAENFDPKKIFGSGGFEDLPIILHDGQVIAGNHRIQGMLNFTPKSRFSYERAIKEYYHIDLKPDELLVRVPHKRLNNTEINNLAASSNQGRFNSESDHAIAVLSHYEAKLKELDQKLDADSIYSLKNIVAKNLNFDKATHPNVTDSNLALLMFNMPRTKTQGIELLNRWKKEFSNDIKSYEKVKKMFVDNAGSFHNLIHDLNFPKVSLNAYLSDIMDRSFANLKNYQSTSESLKDLSEKFYKTSSLEMFEKSDQSTSDISEILGGAIARFARFDDPSKALFEALRSDNIKKGLKDYKIADVTKDMFNADSKEFKDIDIYDFTHYLLMVNREPNENNPILKRLIEAVKDMQKESEKGIKQKLETPSEWGHNYSEFKGDGLGAINKLLETKKGFVAGAFHKEGLGDIDLVYGNSKYGLEHIFNRRESDAIDKGMSKEEAKKYALKIINNIPNIISNGKLSKDNLGRLSIEFENQRVGLNDSWKGETLNNRWVITSYEIDKSRNGLIESPLAPNYKGKDTNPLNLDSPNPTTKN”: the protein production entry is recorded as “failed”.
As for “MKLSSNNAETMESLRSERNQYRILVDITNSVLAHLDMDGLISEVSKEIHRFFGLNHISLMLCRTSSQNSHEGILYSSRYQTGKSVIRQQRKFSSANNKAEEIIHQNKPVLIDINKEDQDDVLIKRLVKQNMQTALLLPLAFNRKPLGLLILAHEISSVFTEETCQLLQQIAARIGIAIENAAAYEEITHLKDS”, the entry is “failed”; as for “MKLTLRKKLLEKVENTTETPMLILSVVYVVVALLPDIAVLSPDDLEFLDGLLWIVWGIFATELLVKIFVSPKPLQYMMQNWPDVLIVAMPFLRPLRFLRILLVLPKAWRQTKSVLRQKTFSFIGLTSLSTVLLSAAFVYLVEKGTPSPINSYADALWWAMSTITTVGYGDMYPVTGFGRGVAVFLMLTGITLFGLLTASVASFFVEDDTAKQDHLSLNLLLEKNQQLETQLNQLVETQQPRKRFHLASYRRQLAERETVRKNQKPKRRRIKLPSQDNRNA”, “failed”; as for “MKLTPKELDKLMLHYAGELAKKRKEKGIKLNYVEAVALISAHIMEEARAGKKTAAELMQEGRTLLKPDDVMDGVASMIHEVGIEAMFPDGTKLVTVHTPIEANGKLVPGELFLKNEDITINEGKKAVSVKVKNVGDRPVQIGSHFHFFEVNRCLDFDREKTFGKRLDIASGTAVRFEPGEEKSVELIDIGGNRRIFGFNALVDRQADNESKKIALHRAKERGFHGAKSDDNYVKTIKE”, “failed”.
For “MKLVEHYIMRGTRRLVLIIVGFLIFIFASYSAQRYLTEAANGTLALDVVLDIVFYKVLIALEMLLPVGLYVSVGVTLGQMYTDSEITAISAAGGSPGRLYKAVLYLAIPLSIFVTLLSMYGRPWAYAQIYQLEQQSQSELDVRQLRAKKFNTNDNGRMILSQTVDQDNNRLTDALIYTSTANRTRIFRAGSVDVVDPSPEKPTVMLHNGTAYLLDHQGRDDNEQIYRNLQLHLNPLDQSPNVKRKAKSVTELARSAFPADHAELQWRQSRGLTALLMALLAISLSRVKPRQGRFSTLLPLTLLFIAIFYGGDVCRTLVANGAIPLIPGLWLVPGLMLMGLLILVARDFSLLQKFSR”, the protein production entry is “failed”.
As for “MKLVTYNIQYGIGLDGQYDVARIADAVRGADVVALQEVTRNNPRNGGRDMVAEIGEALPDYFAVYGSNFEANIGSRIENGRAITTTFQLGNMMLSKTPIHLSRNLLLPRSRSFEMMNFQRGALEALIETPLGFIRFYSIHLDHRSPVERASQIQFLRRRLLNYALEGGALSGVAEIGLPELPHPEAFVAMGDFNMLAGSPEYVELAGRPDHQFGMPLTADFAVDAAVRLNVTGDDLASWVDPKDPANTSRHKRIDYVFTSASPARSLQHLWVDHQATGSDHLPVWAELG”, the entry is “failed”.
As for “MKMDTGALTFQQKIYWLVKQIPLGRVATYGQIAALCGWPRHGRYVGYALYRVAPNSDIPWHRVVNAQGKISYAPQRRGTDELQRWRLAAEGIIFTAGLEHHHHHH”, the entry is “failed”; as for “MKMEARQKQNSFTSKMQKIVNHRAFTFTVIALILFNALIVGIETYPRIYADHKWLFYRIDLVLLWIFTIEIAMRFLASNPKSAFFRSSWNWFDFLIVAAGHIFAGAQFVTVLRILRVLRVLRAISVVPSLRRLVDALVMTIPALGNILILMSIFFYIFAVIGTMLFQHVSPEYFGNLQLSLLTLFQVVTLESWASGVMRPIFAEVPWSWLYFVSFVLIGTFIIFNLFIGVIVNNVEKAELTDNEEDGEADGLKQEISALRKDVAELKSLLKQSK”, “failed”.
